Data on 14 molecules can be found in US20230279079A1 (CHANG GUNG MEMORIAL HOSPITAL LINKOU, published 2023).

Experiment [1] addresses T1, SARS-CoV-2 nucleocapsid protein (SARS-CoV-2, UniProt P0DTC9 1-419).
T1 construct: also called N protein
Briefly: ELISA on recombinant protein. On the technique in general: An ELISA detects its analyte on a solid surface through an enzyme-linked reagent.

In experiment [2] the target is T2, SARS-CoV-2 spike S2 subunit (SARS-CoV-2, UniProt P0DTC2 686-1213).
T2 construct: domain: S2 subunit
Briefly: ELISA.

Experiment [3] addresses T3, SARS spike S1 subunit (severe acute respiratory syndrome …, UniProt P59594 14-667).
T3 construct: domain: S1 subunit
Briefly: ELISA.

The target in experiment [4] is T4, MERS spike extracellular domain (Middle East respiratory syndrome …, UniProt K9N5Q8 18-1296).
T4 construct: extracellular domain
Briefly: ELISA.

Experiment [5] concerns the target T5, Human coronavirus OC43 spike extracellular domain (human coronavirus OC43, UniProt P36334 14-1297).
T5 construct: extracellular domain
Briefly: ELISA.

In experiment [6] the target is spike glycoprotein of wild type SARS-CoV-2 virus (SARS-CoV-2, UniProt P0DTC2 14-1273). Briefly: cell-based or functional assay.
The target of experiment [7] is T6, SARS-CoV-2 spike receptor binding domain (RBD) (SARS-CoV-2, UniProt P0DTC2 319-541).
T6 construct: also called SARS-CoV-2 RBD
Briefly: ELISA.

Residue numbers refer to the chain shown, from its start.

B1: EY 5A (antibody, V domains shown)
VH: EVQLVESGPGLVKPSGTLFLTCTVSGGSISNYYWSWIRQPPGKALEWIGFIYSNGNTDYNPSLQSRVTISGDTSKNQFSLNLRSVTAADTAVYYCARGPGPATGGSLDYWGQGTMVTVSS
VL: not shown
With B1, the binding result in experiment [1] is “binds”.

B2: FI 1C (antibody, V domains shown)
VH: EVQLVESGGGLVKPGGSLRLSCAASGFTFSDYYMSWIRQAPGKGLEWVSYISSSGSTIYYADSVKGRFTISRDNAKNSLYLQMNSLRAEDTAVYYCARRSNRFLIAFDIWGQGTMVTVSS
VL: QSALTQPASVSGSPGQTITISCTGTSSDVGGYNYVSWYQQHPGKAPKLMIYEVSNRPSGVSNRFSGSKSGNTASLTISGLQAEDEADYYCSSYTSSSTLVVFGGGTKLTVP
For the molecule B2, the binding result in experiment [2], in experiment [3], in experiment [4] and in experiment [5] was “no binding” each time. In addition, in experiment [6], the “Neutralization by FMNT EC50” value amounted to 2.24 nM. Also, in experiment [6], the “Neutralization by PRNT EC50” value stood at 16.7 nM.

B3: EY 8A (antibody, V domains shown)
VH: EVQLVESGPGLVKPSQTLSLTCTVSGGSISSGSYYWSWIRQPAGKGLEWIGRIYTSGSTNYNPSLKSRVTISVDTSKNQFSLKLSSVTAADTAVYYCAKGHVISGYDDYYYYYGMDVWGQGTTVTVSS
VL: not shown
On to B3, for which the binding result in experiment [1] is recorded as “binds”.

B4: FD 7D (antibody, V domains shown)
VH: EVQLVESGAEVKKPGESLRISCKGSGYSFTSYWISWVRQMPGKGLEWMGRIDPSDSYTNYSPSFQGHVTISADKSISTAYLQWSSLKASDTAMYYCARHSDCSSTSCYFVDAFDIWGQGTMVTVSS
VL: not shown
As to B4, the binding result in experiment [7], in experiment [2], in experiment [3], in experiment [4] and in experiment [5] was “no binding” throughout.

B5: FD 8B (antibody, V domains shown)
VH: EVQLLESGAEVKKPGASVKVSCKVSGYTLTELSMHWVRQAPGKGLEWMGGFDPEDGETIYAQKFQGRVTMTEDTSTDTAYMELSSLRSEDTAVYYCATAAAINCSSTSCYYYYYYYGMDVWGQGTTVTVSS
VL: not shown
On to B5, for which the binding result in experiment [7], in experiment [2], in experiment [3], in experiment [4] and in experiment [5] was “no binding” in each case.

B6: EZ 4C kappa (antibody, V domains shown)
VH: EVQLVESGPGLVKPSETLSLTCTVSGGSVSSGNNYWSWIRQPPGKALEWIGYIYYSGSTKYNPSLKSRVTMSVGTSKNQFSLKVNSVTAADTAMYYCARAPSAPFGGLFDWILPKGINNWGQGTLVTVSS
VL: EIVLTQSPSTLSASVGDRVTITCRTSQSIRSWLAWYQQKPGKAPKLLIFEASTLESGVPERFSGSGSGAEFTLTISSLQPDDFATYYCQQYNGYSYSFGQGTKVEIR
notes: also called EZ 4C-1
With B6, the binding result in experiment [1] is recorded as “binds”.

B7: EZ 4A (antibody, V domains shown)
VH: EVQLVQSGAEVKKPGESLKISCKGSGYSFTSYWIGWVRQMPGKGLEWMGIIYPGDSDTRYSPSFQGQVTISADKSISTAYLQWSSLKASDTAMYYCARSPIAADLFDYWGQGTLVTVSS
VL: not shown
B7: in experiment [1], the binding result is “binds”.

B8: FD 11D (antibody, V domains shown)
VH: EVQLVESGGGVVQPGRSLRLSCAASGFTFSSYGMHWVRQAPGKGLEWVAVISYDGSNKYYADSVKGRFTISRDNSKNTLYLQMNSLRAEDTAVYYCAKEGAGSGWYRHHKPGYYFDYWGQGTLVTVSS
VL: not shown
Turning to B8, the binding result in experiment [7] is “no binding”; in experiment [2] it was “no binding”; in experiment [3] it was “binds”; in experiment [4] it was “binds”; in experiment [5], “binds”.

B9: FD 11C (antibody, V domains shown)
VH: EVQLLESGPGLVKPSETLSLTCTVSGGSISSSSYYWGWIRQPPGKGLEWIGSIYYSGSTYYNPSLKSRVTISVDTSKNQFSLKLSSVTAADTAVYYCAREYYYGSETKKYYYYYGMDVWGQGTTVTVSS
VL: not shown
As for B9, the binding result in experiment [7], in experiment [2], in experiment [3], in experiment [4] and in experiment [5] was “no binding” each time.

B10: EZ 7B (antibody, V domains shown)
VH: EVQLVESSPGLVKPSETLSLTCTVSGGSISSYYWSWIRQPPGKGLEWIGYIYYSGSTNYNPSLKSRVTISVDTSKNQFSLKLSSVTAADTAVYYCARRVFGPVLPSKLGGSYWGGGAFDIWGQGTMVTVSS
VL: not shown
Take B10: in experiment [1], the binding result is given as “binds”.

B11: FD 4C (antibody, V domains shown)
VH: EVQLVESGPGLVKPSQTLSLTCTVSGGSISSGGYYWSWIRQHPGKGLEWIGYIYYSGSTYYNPSLKSRVTISVDTSKNQFSLKLSSVTAADTAVYYCARVRSSSSWYFDYWGQGTLVTVSS
VL: QSVLTQPASVSGSPGQSITISCTGTSSDVGGYNYVSWYQQHPGKAPKLMIYDVSKRPSGVSNRFSGSKSGNTASLTISGLQAEDEADYYCSSYTSKWVFGGGTKLTVL
On to B11, for which the binding result in experiment [1] is “binds”.

B12: FG 12C (antibody, V domains shown)
VH: EVQLVESGGGLVQPGRSLRLSCAASGFTFDDYAMHWVRQAPGKGLEWVSGISWNSGSIGYADSVKGRFTISRDNAKNSLYLQMNSLRAEDTALYYCAKDMRVHDYGDYYFDYWGQGTLVTVSS
VL: SYELTQPPSVSVAPGKTARITCGGNNIGSKSVHWYQQKPGQAPVLVIYYDSDRPSGIPERFSGSNSGNTATLTISRVEAGDEADYYCQVWDSSSDHPVFGGGTKLTVL
Take B12: the binding result in experiment [7], in experiment [2], in experiment [3], in experiment [4] and in experiment [5] was “no binding” throughout.

B13: FN 8C (antibody, V domains shown)
VH: QVQLVESGGGVVQPGRSLRLSCAASGFTFSSYGMHWVRQAPGKGLEWVAVISYDGSNKYYADTVKGRFTISRDNSKNTLYLQMNSLRAEDTAVYYCARERTYYDILTGYRHYYGMDVWGQGTTVTVSS
VL: B12 VL with K16Q, I47V, Y49D, P97W
Consider B13, for which the binding result in experiment [7], in experiment [2], in experiment [3], in experiment [4] and in experiment [5] was “no binding” throughout.

B14: EY 6A-1 (antibody, V domains shown)
VH: EVQLVESGGGVVQPGRSLRLSCAASAFTFSSYDMHWVRQAPGKGLEWVAVISYDGSNKYYADSVKGRFTISRDNSKNTLYLQMNSLRAEDTAVYYCAKDGGKLWVYYFDYWGQGTLVTVSS
VL: not shown
With B14, the binding result is “no binding” in experiment [2], “binds” in experiment [3], “no binding” in experiment [4] and “no binding” in experiment [5]. For the same molecule, the “Neutralization by FMNT EC50” value in experiment [6] was 22.5 nM. In addition, the “Neutralization by PRNT EC50” value in experiment [6] stood at 133 nM.
